Laboratory results as given in patent US20190033318A1 (UNIVERSITY OF SOUTHAMPTON, published 2019).
Starred links: 1 amine or outer side, 2 acyl side, 3 side chain; linkers in the order of their positions; H or OH if unused. Non-standard residues stand in square brackets, D forms with d. Tyr(Me) = 4-methoxyphenylalanine (O-methyl-tyrosine), COc1ccc(C[C@H](N[*:1])C(=O)[*:2])cc1; FITC‑maleimide = fluorescein isothiocyanate-maleimide label on the cysteine; Tyr(3-NO2) = N[C@@H](Cc1ccc(O)c([N+](=O)[O-])c1)C(=O)O; Phe(4-NO2) = N[C@@H](Cc1ccc([N+](=O)[O-])cc1)C(=O)O; Phe(4-CN) = N#Cc1ccc(C[C@H](N)C(=O)O)cc1; Phe(4-Cl) = N[C@@H](Cc1ccc(Cl)cc1)C(=O)O; Phe(4-F) = N[C@@H](Cc1ccc(F)cc1)C(=O)O; Phe(4-Me) = Cc1ccc(C[C@H](N)C(=O)O)cc1; Cha = N[C@@H](CC1CCCCC1)C(=O)O; Pal = not defined here

B1: CRLLI(4-MeO-F) (peptide)
peptide: cyclo(CRLLI[Tyr(Me)])
SMILES: CC[C@H](C)[C@@H]1NC(=O)[C@H](CC(C)C)NC(=O)[C@H](CC(C)C)NC(=O)[C@H](CCCNC(=N)N)NC(=O)[C@H](CS)NC(=O)[C@H](Cc2ccc(OC)cc2)NC1=O
notes: also called CRLLIX where X = 4-MeO-F
B2: CRLLI(3-NO2-Y) (peptide)
peptide: cyclo(CRLLI[Tyr(3-NO2)])
SMILES: CC[C@H](C)[C@@H]1NC(=O)[C@H](CC(C)C)NC(=O)[C@H](CC(C)C)NC(=O)[C@H](CCCNC(=N)N)NC(=O)[C@H](CS)NC(=O)[C@H](Cc2ccc(O)c([N+](=O)[O-])c2)NC1=O
notes: also called CRLLIX where X = 3-NO2-Y
B3: CRAIIF (peptide)
peptide: CRAIIF
notes: also called alanine scan peptide of CRVIIF, position 3 (V to A)

Each binder was assayed against T1, HIF-1α (construct not given) (UniProt Q16665 1-350, limits assumed) (assay: HIF-1 ELISA, inhibition of HIF-1α/HIF-1β dimerisation).
T1 construct: also called HIF-1 ELISA
Method: (§1) 25 μL of His-tagged HIF-α protein (either Trx-1α, Trx-2α, 1α PASB, or 2α PASB) at 0.1 μM in HIF assay buffer were added to individual wells of a Pierce Ni²⁺-coated 96-well plate (Thermo) in triplicate. The plate was rocked gently at room temperature for 1 hr, before washing with 3×200 μL assay buffer (5 min incubation per wash). 25 μL of compounds and/or DMSO at the stated concentrations were added to the plate and allowed to equilibrate for 30 min prior to the addition of 25 μL of GST-1β at 0.2 μM in assay buffer for 1 hr. For conditions in which no compound or DMSO were used, GST-1β was added as a 0.1 μM solution. After incubation with GST-1β, the wells were washed with 3×200 μL assay buffer then 1×200 μL PBS. The wells were then incubated with 100 μL mouse α-GST antibody (Thermo, MS-707-P) at a 1/1000 dilution in PBS supplemented with 0.1% Tween-20 (PBST) and 2% non-fat powdered milk (Marvel) for 1 hr, followed by 3×200 μL washed with PBS. 100 μL of secondary HRP-conjugated α-mouse antibody (GE Healthcare) was added at a 1/6000 dilution in 2% milk/PBST for 1 hr, then washed with 3×200 μL PBS. Wells were incubated with 100 μL of 1-Step Ultra TMB-ELISA solution (Thermo) until a blue colour developed (typically 10-15 min) and the reaction was stopped by the addition of 100 μL of a ⅕ dilution of conc. H₂SO₄, which turned the solution yellow. Absorbance was read at 450 nm using a Tecan Infinite M200 Pro plate reader. Data were fitted and IC₅₀ values determined by non-linear regression using GraphPad Prism 6.

Row | Binder | IC50
1 | B1 | 36.7 µM
2 | cyclo(CRLLI[Phe(4-CN)]) (also called CRLLIX where X = 4-CN-F) [CRLLI(4-CN-F)] | 44.2 µM
3 | cyclo(CRLLI[Phe(4-F)]) (also called CRLLIX where X = 4-F-F) [CRLLI(4-F-F)] | 37.5 µM
4 | cyclo(CRLLI[Phe(4-NO2)]) (also called CRLLIX where X = 4-NO2-F) [CRLLI(4-NO2-F)] | 27.8 µM
5 | B2 | 19.5 µM
6 | cyclo(CRLLI[Pal]) (not fully specified; printed as CRLLI(Pal); reading uncertain, also called CRLLIX where X = Pal) [CRLLI(Pal)] | 294 µM
7 | cyclo(CRLLI[Phe(4-Cl)]) (also called CRLLIX where X = 4-Cl-F) [CRLLI(4-Cl-F)] | 13.2 µM
8 | cyclo(CRLLI[Cha]) (also called CRLLIX where X = Cha) [CRLLI(Cha)] | 25.5 µM
9 | cyclo(CRLLI[Phe(4-Me)]) (also called CRLLIX where X = 4-Me-F) [CRLLI(4-Me-F)] | 11.9 µM

These binders were tested against T2, 2α PASB (HIF-2α PASB domain, 240-350) (UniProt Q99814 240-350, labelled with NT-647-NHS dye in MST; 15N (and 13C 15N) labelled in NMR) (assay: MST, HIF-2α PASB domain).
T2 construct: range 240-350; also called PAS B domain of HIF-2α; not shown: His6 tag of vector pET28, then Met
T2 sequence (Q99814 240-350): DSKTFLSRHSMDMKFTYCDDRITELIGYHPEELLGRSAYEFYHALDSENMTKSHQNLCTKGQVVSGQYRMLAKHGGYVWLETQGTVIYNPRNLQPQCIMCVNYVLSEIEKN

Row | Binder | Kd
10 | B1 | 4.5 µM
11 | cyclo(CRLLI[Phe(4-CN)]) (also called CRLLIX where X = 4-CN-F) [CRLLI(4-CN-F)] | 9.46 µM
12 | cyclo(CRLLI[Phe(4-F)]) (also called CRLLIX where X = 4-F-F) [CRLLI(4-F-F)] | 7.41 µM
13 | CRLLIW (cyclic analogue of cyclo-CRLLIF) | 9.6 µM
14 | cyclo(CRLLI[Phe(4-NO2)]) (also called CRLLIX where X = 4-NO2-F) [CRLLI(4-NO2-F)] | 5.76 µM
15 | B2 | 49 µM
16 | cyclo(CRLLI[Pal]) (not fully specified; printed as CRLLI(Pal); reading uncertain, also called CRLLIX where X = Pal) [CRLLI(Pal)] | 45.3 µM
17 | cyclo(CRLLI[Phe(4-Cl)]) (also called CRLLIX where X = 4-Cl-F) [CRLLI(4-Cl-F)] | 4.15 µM
18 | cyclo(CRLLI[Cha]) (also called CRLLIX where X = Cha) [CRLLI(Cha)] | 5.63 µM
19 | cyclo(CRLLI[Phe(4-Me)]) (also called CRLLIX where X = 4-Me-F) [CRLLI(4-Me-F)] | 5.27 µM

The binders below were run against T3, 1α PASB (HIF-1α PASB domain, 238-349) (UniProt Q16665 238-349, labelled with NT-647-NHS dye in MST) (assay: competition ELISA: 1α PASB on Ni plate, peptide titrated, blocked partner GST-1β; the value stands in the panel without a name, the ELISA fits give IC50; the fall is only partial).
T3 construct: range 238-349; not shown: His6 tag of vector pET28, then Met
Method: as §1, with “Wells were incubated with 100 μL of 1-Step Ultra TMB-ELISA solution (Thermo) until a blue colour developed (typically 10-15 min) and the reaction was stopped by the addition of 100 μL of a ⅕ dilution of conc. H₂SO₄, which turned the solution yellow.” left out

Row | Binder | IC50
20 | B3 | 51 µM

What follows are binders tested against T4, HIF-2α (construct not given) (UniProt Q99814 1-360, limits assumed) (assay: HIF-2 ELISA, inhibition of HIF-2α/HIF-1β dimerisation).
T4 construct: also called HIF-2 ELISA
T4 sequence (Q99814 1-360 limits assumed): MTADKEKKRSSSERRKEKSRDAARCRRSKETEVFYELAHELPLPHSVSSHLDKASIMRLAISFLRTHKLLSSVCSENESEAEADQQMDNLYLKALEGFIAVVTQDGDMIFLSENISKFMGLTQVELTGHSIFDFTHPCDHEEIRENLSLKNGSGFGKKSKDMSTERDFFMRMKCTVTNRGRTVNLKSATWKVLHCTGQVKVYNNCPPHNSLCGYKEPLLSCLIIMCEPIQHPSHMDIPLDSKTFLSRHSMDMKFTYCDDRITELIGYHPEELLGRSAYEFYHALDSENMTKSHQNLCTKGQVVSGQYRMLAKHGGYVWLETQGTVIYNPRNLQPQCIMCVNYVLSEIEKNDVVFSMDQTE

Row | Binder | Activity as measured by a HIF-2 ELISA
21 | cyclo(C(FITC‑maleimide)KLIIF) [FITC-CKLIIF (SEQ ID NO 2)] | 0.77 µM
22 | cyclo(C(FITC‑maleimide)RLLIF) [FITC-CRLLIF (SEQ ID NO 3)] | 0.47 µM

What follows are binders tested against T3, 1α PASB (HIF-1α PASB domain, 238-349) (assay: MST, peptide titrated into labelled PAS-B domain of HIF-1α).

Row | Binder | Kd
23 | cyclo(CRLLI[Cha]) (also called CRLLIX where X = Cha) [CRLLI(Cha)] | 4.1 µM
24 | cyclo(CRLLI[Phe(4-Me)]) (also called CRLLIX where X = 4-Me-F) [CRLLI(4-Me-F)] | 11.4 µM

What follows are binders tested against T5, Trx-1α (thioredoxin-tagged HIF-1α 1-350, bHLH-PASA-PASB) (UniProt Q16665 1-350) (assay: thermal shift assay, 1 mM peptide).
T5 construct: range 1-350; not shown: Thioredoxin-His6 tag of vector pET32
Method: (§2) Thermal denaturation of HIF proteins was performed in 20 μL reactions in triplicate using a Bio-Rad CFX Connect Real-Time System. Proteins were used at either 5 μM (Trx-1α, Trx-2α and GST-1β) or 15 μM (His-tagged PASB domains) in HIF assay buffer, with 10 mM DTT and SYPRO orange dye (Life Technologies) at a final concentration of 8×(relative to 5000×stock), and supplemented with either DMSO or compound dissolved in DMSO at the stated concentrations. The reaction plate was assembled on ice, then transferred to the pre-chilled thermal cycler, held at 10° C. for 5 min (heated lid, 105° C.), then the temperature ramped to 95° C. Fluorescence was recorded at 0.5° C. increments, holding for 5 sec at each temperature. Data were plotted using GraphPad Prism 6, and melting temperatures calculated using the first derivative method in which the peak (i.e. the steepest transition between data points) represents the point at which 50% of the protein sample is denatured. Errors are quoted as the inherent error associated with the first derivative of the data, i.e. ±0.25° C. for Tₘ values and ±0.5° C. for ΔTₘ values.

Row | Binder | ΔTm
25 | SGWEMIQRR (cyclic peptide (first amino acid joined to the last), One of the 4 cyclic peptide hits) [cyclo-SGWEMIQRR (SEQ ID NO 5)] | -2.5 ° C.

Each binder was assayed against T6, 1β PASB (HIF-1β PASB domain, 356-474) (UniProt P27540 356-474) (assay: thermal shift assay, 1 mM peptide).
T6 construct: range 356-474; not shown: His6 tag of vector pET28
Method: as §2

T6 sequence (P27540 356-474): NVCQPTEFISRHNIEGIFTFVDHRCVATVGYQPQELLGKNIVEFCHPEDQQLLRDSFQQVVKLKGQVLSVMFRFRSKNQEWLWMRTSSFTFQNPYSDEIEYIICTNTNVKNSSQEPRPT

Row | Binder | ΔTm
26 | SGWEMIQRR (cyclic peptide (first amino acid joined to the last), One of the 4 cyclic peptide hits) [cyclo-SGWEMIQRR (SEQ ID NO 5)] | -0.5 ° C.

Each binder was assayed against T3, 1α PASB (HIF-1α PASB domain, 238-349) (assay: MST, HIF-1α PASB domain).

Row | Binder | Kd
27 | B1 | 10.8 µM
28 | cyclo(CRLLI[Phe(4-CN)]) (also called CRLLIX where X = 4-CN-F) [CRLLI(4-CN-F)] | 10 µM
29 | cyclo(CRLLI[Phe(4-F)]) (also called CRLLIX where X = 4-F-F) [CRLLI(4-F-F)] | 6.84 µM
30 | CRLLIW (cyclic analogue of cyclo-CRLLIF) | 7.7 µM
31 | cyclo(CRLLI[Phe(4-NO2)]) (also called CRLLIX where X = 4-NO2-F) [CRLLI(4-NO2-F)] | 3.73 µM
32 | B2 | 90.7 µM
33 | cyclo(CRLLI[Pal]) (not fully specified; printed as CRLLI(Pal); reading uncertain, also called CRLLIX where X = Pal) [CRLLI(Pal)] | 69.2 µM
34 | cyclo(CRLLI[Phe(4-Cl)]) (also called CRLLIX where X = 4-Cl-F) [CRLLI(4-Cl-F)] | 2.8 µM
35 | cyclo(CRLLI[Cha]) (also called CRLLIX where X = Cha) [CRLLI(Cha)] | 1.37 µM
36 | cyclo(CRLLI[Phe(4-Me)]) (also called CRLLIX where X = 4-Me-F) [CRLLI(4-Me-F)] | 9.61 µM

Each binder was assayed against T2, 2α PASB (HIF-2α PASB domain, 240-350) (assay: MST, peptide titrated into labelled PAS-B domain of HIF-2α).

Row | Binder | Kd
37 | cyclo(CRLLI[Phe(4-Cl)]) (also called CRLLIX where X = 4-Cl-F) [CRLLI(4-Cl-F)] | 4.2 µM
38 | cyclo(CRLLI[Cha]) (also called CRLLIX where X = Cha) [CRLLI(Cha)] | 5.8 µM
39 | cyclo(CRLLI[Phe(4-Me)]) (also called CRLLIX where X = 4-Me-F) [CRLLI(4-Me-F)] | 5.4 µM

Target: T4, HIF-2α (construct not stated at the …)
Experiment: HIF-2 ELISA, inhibition of HIF-2α/HIF-1β dimerisation
Remark: another data set of the same source
Method: as §1

Row | Binder | IC50
40 | B1 | 15.3 µM
41 | cyclo(CRLLI[Phe(4-CN)]) (also called CRLLIX where X = 4-CN-F) [CRLLI(4-CN-F)] | 6.27 µM
42 | cyclo(CRLLI[Phe(4-F)]) (also called CRLLIX where X = 4-F-F) [CRLLI(4-F-F)] | 11.5 µM
43 | cyclo(CRLLI[Phe(4-NO2)]) (also called CRLLIX where X = 4-NO2-F) [CRLLI(4-NO2-F)] | 12 µM
44 | B2 | 22.7 µM
45 | cyclo(CRLLI[Pal]) (not fully specified; printed as CRLLI(Pal); reading uncertain, also called CRLLIX where X = Pal) [CRLLI(Pal)] | 212 µM
46 | cyclo(CRLLI[Phe(4-Cl)]) (also called CRLLIX where X = 4-Cl-F) [CRLLI(4-Cl-F)] | 4.88 µM
47 | cyclo(CRLLI[Cha]) (also called CRLLIX where X = Cha) [CRLLI(Cha)] | 19.8 µM
48 | cyclo(CRLLI[Phe(4-Me)]) (also called CRLLIX where X = 4-Me-F) [CRLLI(4-Me-F)] | 6.07 µM
